The sequences below were run on Saccharomyces cerevisiae (assay: transcriptional activation domain activity (GFP:mCherry ratio, weighted mean of sorted bins, harmonized to initial dataset scale) (arbitrary fluorescence ratio units); higher = stronger transcriptional activation). Settings: beta-estradiol 1 µM; induction time 4 h.
In short: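 Barcoded protein tiles fused to an estradiol-inducible synthetic transcription factor were integrated at the yeast URA3 locus, in diploids carrying a GFP reporter. Cultures were diluted 1:5 into SC with 1 uM beta-estradiol, held 4 hours at 30 °C, sorted into 8 bins by GFP:mCherry ratio, and barcodes sequenced. Tiles under 50 reads were discarded. Activation activity is the read-weighted mean of bin median fluorescence, averaged across barcodes, then linearly mapped onto the initial dataset scale.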

| Sequence | transcriptional activation domain activity |
| --- | --- |
| NMMLYLLKGLPALSMSDPASITRFIKLVDELLYYAYEAERRSPLPTSHPNLVR | 65700 |
| DVKKVYFASRFPGNWLRDYSQAMDIAGLSKLSSDTLVLVVAVLGFMTFGFATE | 38900 |
| AEKEAEPEKEAGSESPQKKITPMKRGRGRPKRGGGAAGASSPEPAAVVVVAER | 14700 |
| LWQYMEFRILVYIFFGLSFIPLSIFLLFCTCLSSFIFFVAAGIWLFVGTIAFF | 54200 |
| RNVIRGCRKPLSSRYVFLMSVTRLVIPLYFYVCPYNIIALKPSKWIWLLVLYV | 62600 |
| EPGEEYHHSNGTNTDNNETTGADDTDDNNNNNNNNNKNGNNSSSTINNNNNNY | 35700 |
| YSRRDRPRDRGDRGDRDGGEERGGRRDRGDRNDRFGGEDRGGRGRRDGGGGGG | 10400 |
| VFRLYFYLLYFIFYRNLFARLRNWEQYTLIQVASSVWVIIFYPLRMTRTTHGL | 65900 |
| DVKISNDFFDNGDNLYGNDEEVLFYEDNYNPKMQWSLQDNSAAINNEDARAIF | 107000 |
| ISNHQVYADWWYAWCLTYFMGTHKDIFIVLKKSLKWLPIVGWGMQFFNFIFLA | 48400 |
| EPRISEGGLAALVASSPCKPAAVPILLTGPPKQAKACSSRLTGTHRPASNCKS | 36500 |
| YRTSQDLVGLSTVLEQYFNIGGLTGLLIIGDLIHCGLLPMPSIITWTRLIAHV | 68800 |
| MKFLFILCCHILPYVPIFYLMSLSSIFLHFTLLFIYLITLFYTFAYIFIFSFY | 50400 |
| DDEEENKSAPAKKSRAKKTVKKEEDDDDNNAEEAKPAPAKKSRAKKAVKKEED | 57900 |
| ENAGNENAVDVENAGNENTAPEAKGKKNKGNAAANENAAGNAQAGEAGQVAAN | 47200 |
| SCIVLYACSKIIIYLFLMEKVYVVTAVGATRANFMLYRINLSLLIPYVGIFAL | 52300 |
| TSTAPHRGFGFVEFEHPEDAKAAQDNMHLSELYGKTIKVNLARPLKGAGPGGR | 57100 |
| LCSWLIPRVLVLLGRKGCEKLMENIKALFDLFFQIIPQYPNFWCWESILLDYL | 41800 |
| MQMKMSESMSILILMLIMLELGWDVVDPCFFFTPFTPFPILPSFLPSFFFLFL | 54500 |
| YQWVNYDLDTICMNFWTLKFLPDELPPIKHFSVVANDCKLFMYNVMGIIRFMS | 82700 |
| MVCRDILHFWWMFISLNANAEDIIISRSSSWLSSPLLVCFLVVCNVVCVYFYI | 72800 |

| Sequence | transcriptional activation domain activity |
| --- | --- |
| MLSHLVVSTPHCSIMFGPSMDWTRVFAFFLLLRFSLHWISNNCFVSPLLLLCY | 69800 |
| GREGKKHRDRDGSSRGSSSKEKRRERSDGKKHREKSEGGKHREGRSREGRRED | 44700 |
| VAIFTDVKNDHLMPNFNLHDQYCNSTNHDSHNHNNTVPDSFSQLMSHLSEIDC | 27700 |
| MRFPPLLFSFFLFFLFFFHLFLFLFHNLFFFYQSFFSSQPLFSFSLSFLSSSL | 42800 |
| MCCAECCLSSLVSFVSFFSRSLHSLTIRGFFLFPGTFHVILFLFFRFFIFFFH | 47400 |
| VIYSHRYVFHKKKGLRHIHVLNGWYVLSRIIAVYVLQDFLGEGSSVVVIAFLR | 58700 |
| KADEPAVEENGAKEDDSAKKQKTNGETETEKKGKGRGRPKKADGEKKAPAKKR | 21400 |
| ATIMYLGLCITFLPFLVIYVIYNICSAFYVVLLGLGLLVYWLTRNSRLLKWAF | 45800 |
| ALRHRYIIGTSLCRLFIPLYFFACPYNTLFQDPNPLVWILLLYVSAQALLLLL | 63900 |
| VLGELSRFAGGPEETPIHIGTLYYLNVHTAPPYFWQRCQALLYRNTLLLSWIA | 52200 |
| GRMIRMWKRWSVMAHGMNRLKHYANYLPRLIVLLNKTLPQDVADIIKFNMLVC | 39100 |
| TACVAIINIKCLFLEMHVWSVLNYAFFFISYGGWWVWTIAQSLIFGHQSIYFV | 34700 |
| SGIYSGGLSLWTAFFLGYFKAFLWGSFWGWLAGYFVLLFVICVAWNPFFFLYL | 57600 |
| MGLLCFVFVLHSVFFIFNALSFLPWFVFLKIKFIFLCLSSFGRVFSSFIYMIF | 53000 |
| MEHLVYHAPGVLPKMECRPPFRLCLLLLILFLFLFLCCQKVPLWIFACRFCCG | 41200 |
| MDILDIFFLFYSLLVSFLFFFLLITLLFLSPFISISFYFLTAFYVYFWVFFRA | 34100 |
| QLYSNNFQQSYPNGMVPGYYPKMPYNPMGGDPLLDQAFYGADDFFFPPEGCDN | 77800 |
| TQATIVGDFFVCLMDVAGHDLAILLINWRAQTGTWLIFDSLEPLMWPHRITLV | 40300 |
| RYEAQGGGYKDTGDNKNKAKKGTPERKTKEDGKEEEEKGDKKEEAKKEEGKKE | 22800 |
| CRGIYTLHTTNLMIVDDIVYLWRYDRQNVIQSTGLNFITDMPYFMALLAVFQR | 48500 |
| MVIWRDTLLITLHGLCGGILLRFPSAVNLFHCFIDINSPIGITILTLFVLHLC | 70200 |

| Sequence | transcriptional activation domain activity |
| --- | --- |
| MRIAIYWRSFSVSTSFFFLPGYSFFLSNWVLFLVYFYDTGCGVCFLPFIMIFF | 72700 |
| QLTAQQLIENAIESGVVDLETLDLPPFLSLDGLPPASSSAAVAASEQIDICPS | 133000 |
| TDMDLKILEDLCNISSLYEVPFGKHINHHDHNNAGNGCDGSSTGNNENGNQTM | 77600 |
| LFLFLCLFSPPINNPPFSSLIGEFLPLILSSWFYSFLISVWWNRWEKAFSWWL | 33800 |
| APAPIAAEPAPAPAVETPAPAPAPATEEKKEEAAAPAVEATPAPAAAPAAATT | 30500 |
| GLRDNVIENRQGKKGAGKAAAAGGAGAAAANTNAATGGKAAKAAKAAAAGGSG | 48900 |
| MYHIVIIIPLCLLLFGPFILATDSPFCIVRHPFFFFFLFYQSFIAFTFFFFFT | 62700 |
| TWPYSSLSELEDLMDRFKRMLTLLRMHLKHVAELEVMVTLWKYMGVLLEFLGS | 61800 |
| MIFSNLLVLSLLCSLFLFFYFFFYVLCFFLFAYTLSRSLYITILGFFDLVIVF | 66200 |
| YNIRAKGFNIFNITISVGLIFNQYVNPIALAVLTWKYYVVYCAWLLCEVLFLY | 81900 |
| MFSFSFPLFLSPLPISLFFLPFALSYSLLSSHLMADICLSSTRWLSSIFFSFF | 36100 |
| GGLSELKDSLDDSQVQYAYARVEYANDSESTRVKFVLVIWIGESTKVMRKARV | 46700 |
| AFSFALFDFDTLAGTFPFDSLGYSDDISTLTDPLIPMNYDPTPFSWTPRTTLA | 54300 |
| SLGCTLVYVAHISYLSLLPRFDYSYNMAFNLTLGLTHNFLWLLYSLPSFCAIP | 52300 |
| MIVLVLLFLVFCLLLLVGMVDERGMAGDMYKLYRTPASCRVLALSNPIVRGAW | 52800 |
| MMDCGRRTSFQAFIFLSLFLVHQVSFCCVYLICFFFFLFFLSFLYSFPFPFFF | 26400 |
| MADPQEDNTAPGTKRRRLRGSCDKCKQRKIRCDSSEMPGNRCSNCIAFSSECT | 31600 |
| EFFVLWVVQAIIGSRLEMYWAVLMICVLRCNQSYVSNACREVWLSWIIHGWVQ | 61500 |
| LKSKALDAKVPIGLFTVLFFHPFLFPFCSLFPALFAPSFLFLFPLCFVTHFFL | 52400 |
| RVSDYSMAQFRFLLKFLLVHGRWNYIRICKYTISTFWKELLFYLTQAMYQRWN | 28800 |
| MCIFFKGQYPIYLAFVRPFASLFFRVPLFRLFFGIFCAWVLCFLFLLLLSFSC | 43600 |

| Sequence | transcriptional activation domain activity |
| --- | --- |
| AGIRLLERAWYWLHGRYRFTAGYVAELLLNGFKRPHGLLNAYVHHFTNFNITD | 72000 |
| LFLLFTFPLLGIFDTCFLTSMLFMALCFLFILLLETSFFFFFSLHPNFISWPY | 62600 |
| YQNLYFIQLLVSCWALIGMLHLSLNRFEHLHFMVYMRPSGSKYLVAISWCLFL | 66900 |
| EGGEKGGHGGKEGGEGGEGGEGGEEGGHGGHWGHKKHGHGGGKQKGGWGHHGY | 45300 |
| SWRRLPLAMLNFSRAVTFRWTIIIARTYSLNLADVLLTGMYITILFTWNFHNS | 40000 |
| NWYFLGTTMYFLYGESVIYYFKHIVLVDKVLLPFATHHRFISFMLYVIGFVFF | 59100 |
| ALDSEQRRKGMSKPAPKKRGRKPNPNKKPKPPRDPNEPPKKRGRKPNPNKKVT | 42300 |
| MMLVSSRSFLYWYGVSLTLLLLSLEFVWSFLLFFTWLVTLSLFPFLSSVSHCH | 60200 |
| LSLAGSNYFGICWNPAVKNCIPYDTYLLWIRCMPFWYLFVFLYDILPPILIVY | 52200 |
| GLPVVLVLVFFGLPTTGFLVFFPADFLVVFFAFLATFLKVVFKGFFAFLLFFP | 74300 |
| FYICAILGFKIGIIFAFLRIAVDRTYRISIICVAVICSAFYFCFFVAQLNFCT | 62100 |
| MREKDNDETTTGIFFLFLFLDKILLLFAWYLPWSSSQFLRLLFSLVLFWAVTL | 45300 |
| MGRDSSLPYFNSPSFWVAFFWSGAGLFFSFFTGFIYFPEQIFFPLFFFLFFED | 58800 |
| MSETNAPAASAPDALAEGIAKLDVGAEGAQASEAAAPQANGAGEAAPAAAEAS | 23400 |
| FVIGMSICRAAPGLYIYCWKENIFFLEPSYKSAAVVLSWVWFQVFLLLSQQFF | 59200 |
| YTNVYRCIKDEVYLLLSRLSLNWRKQDDYIWLLNLWTIWAAPWRLGNVPIISG | 53500 |
| RNLMVIVLVVGNLRLMIENLQKYGVLICLHCHDFRRSDILLGLGLYFLIPCHL | 64000 |
| RLLVTTYRMFFILVVTLNLIALALVTVGHFPYADNHIGVILLGNLLCAVMIRN | 29800 |
| LSSYLLKNALDVFCKYLPHVSKPVETVFKVKRKYSWMVLFLLYCILTHTNYHC | 26800 |
| AREGARIRIVNRTVTVGKRTMSARSEVYDADNSRLVASGSHSKMTGSQPETRL | 17700 |
